Results on 22 substances are retold here after US20190338048A1.

Experiment [1] addresses CR8071 lambda light chain S122D_E124Q_T131R (L1 of design 3974, system C). Put plainly: SMCA: H1, L1, H2, L2 co-expressed, protein A, LC-MS.
Experiment [2] has as its target CR8071 lambda light chain S122D_K129T_S176E_Y178E (L1 of design 3967, system C). Described as above.
In experiment [3] the target is CR8071 lambda light chain L1 S122D_Y178K (design 3954, System C). The description is as above.
For experiment [4], the target named is Design 3890 L1: CR8071 lambda light chain S122D_K129T_S180E. The description is as above.
Experiment [5] concerns the target Design 3890 L2: SGN-CD19a kappa light chain S121K_Q124R_T178R. Described as above.
The target of experiment [6] is Design 3898 L1: CR8071 lambda light chain K129T_Y178E_S180E. The description is as above.
Experiment [7] has as its target Design 3898 L2: SGN-CD19a kappa light chain Q124R_T178R. The experiment is described as above.
Experiment [8] shares this target. Described as above. The source holds these as a separate data set.
Experiment [9] has as its target Design 3931 L2: SGN-CD19a kappa light chain V133G_S176D. Described as above.
Experiment [10] has the same target. The description is as above. This is another data set of the same source.
Experiment [11] concerns the target Design 3947 L1: CR8071 lambda light chain K129T_Y178D. The experiment is described as above.
Experiment [12] concerns the target Design 3951 L1: CR8071 lambda light chain S122D_K129T_S176E_Y178E. Described as above.
Experiment [13] concerns the target Design 3954 L1: CR8071 lambda light chain S122D_Y178K. The experiment is described as above.
In experiment [14] the target is Design 3957 L2: SGN-CD19a kappa light chain Q124E_V133D_T178E. The description is as above.
For experiment [15] the target is unchanged. The experiment is described as above. The source holds these as a separate data set.
The target in experiment [16] is SGN-CD19a kappa light chain L2 S121K_S131K_S176K (design 3951). The experiment is described as above.
In experiment [17] the target is SGN-CD19a kappa light chain L2 S121K_S176E_T178E (design 3954, Systems B and C). The description is as above.
Experiment [18] shares this target. Described as above. This is another data set of the same source.
For experiment [19], the target named is SGN-CD19a kappa light chain V133G_L135W_S176D_T180E (L2 of design 3987, systems B and C). The experiment is described as above.
For experiment [20] the target is unchanged. The experiment is described as above. This is another data set of the same source.
Experiment [21] has as its target SGN-CD19a kappa light chain S121K_Q124R_T178R (L2 of design 3890, system B). Put plainly: SMCA LC-MS.
Experiment [22] concerns the target SGN-CD19a kappa light chain S121K_Q124R_T178R (L2 of design 3967, systems B and C). Put plainly: SMCA: H1, L1, H2, L2 co-expressed, protein A, LC-MS.
For experiment [23] the target is unchanged. Described as above. This is another data set of the same source.
The target of experiment [24] is SGN-CD19a kappa light chain Q124R_Q160K_T178R (L2 of design 3878, systems B and C). Put plainly: SMCA LC-MS.
For experiment [25] the target is unchanged. Put plainly: SMCA LC-MS. This is another data set of the same source.
Experiment [26] addresses SGN-CD19a kappa light chain Q124E_V133D_L135W (L2 of design 3972, systems B and C). Put plainly: SMCA: H1, L1, H2, L2 co-expressed, protein A, LC-MS.
For experiment [27], the target named is SGN-CD19a kappa light chain Q124E_V133D_T180D (L2 of design 3971, systems B and C). The experiment is described as above.
Experiment [28] has as its target SGN-CD19a kappa light chain Q124E_V133D_L135W (L2 of design 3972, systems B and C). The description is as above. This is another data set of the same source.
Experiment [29] addresses SGN-CD19a kappa light chain Q124E_V133D_T180D (L2 of design 3971, systems B and C). The description is as above. This is another data set of the same source.
For experiment [30], the target named is SGN-CD19a kappa light chain S121K_Q124E_V133D (L2 of design 3974, systems B and C). The description is as above.
For experiment [31] the target is unchanged. The description is as above. This is another data set of the same source.
Experiment [32] addresses SGN-CD19a kappa light chain Q124E_V133D_L135A (L2 of design 3980, system B). Described as above.
For experiment [33], the target named is SGN-CD19a kappa light chain S121K_V133I_S176D_T178E (L2 of design 3997, system B). Described as above.

Like-named read-outs stand apart in the source and are kept apart here.

In [1], “CR8071 heavy chain A125R_L143D_K145T (H1 of design 3974, system C)” returned a % H1L1 Pairing of 59.9% and a Change in % H1L1 Pairing with respect to wild type of 11.5%.
In [2], “CR8071 heavy chain A125R_S188K (H1 of design 3967, system C)” returned a % H1L1 Pairing of 96.7% and a Change in % H1L1 Pairing with respect to wild type of 28.6%.
In experiment [3], “CR8071 heavy chain H1 A125R_K145T_S188E (design 3954, System C)” yielded a % H1L1 Pairing of 89% and a Change in % H1L1 Pairing with respect to wild type of 40.6%.
In [4], “Design 3890 H1: CR8071 heavy chain A125R_Q179K” had a % H1L1 Pairing of 98.4% and a Change in % H1L1 Pairing with respect to wild type of 30.3%.
“Design 3890 H2: SGN-CD19a heavy chain L143E_K145T_K228D”: in experiment [5], the % H2L2 Pairing was 88.5% and the Change in % H2L2 Pairing with respect to wild type was determined as 17.2%.
In experiment [6], “Design 3898 H1: CR8071 heavy chain Q179K” registered a % H1L1 Pairing of 97.4% and a Change in % H1L1 Pairing with respect to wild type of 15.1%.
As to “Design 3898 H2: SGN-CD19a heavy chain L143E_K145T_Q179E”, the figures for the % H2L2 Pairing in experiment [7] and in [8] were 74.5% and 95.2%, respectively. Moreover, the values for the Change in % H2L2 Pairing with respect to wild type in experiment [7] and in experiment [8] were 36.9% and 35.3%, respectively.
For the substance “Design 3931 H2: SGN-CD19a heavy chain L124R”, the values for the % H2L2 Pairing in experiment [9] and in experiment [10] were 83.6% and 99.5%, respectively. Further, the Change in % H2L2 Pairing with respect to wild type in experiment [9] is 29.4%; in [10], 19.9%.
On to “Design 3947 H1: CR8071 heavy chain S188K”, for which, in experiment [11], the % H1L1 Pairing amounted to 91.3% and the Change in % H1L1 Pairing with respect to wild type came to 23.2%.
In experiment [12], “Design 3951 H1: CR8071 heavy chain A125R_S188K” had a % H1L1 Pairing of 97.5% and a Change in % H1L1 Pairing with respect to wild type of 29.4%.
With “Design 3954 H1: CR8071 heavy chain A125R_K145T_S188E”, in experiment [13], the % H1L1 Pairing stood at 89% and the Change in % H1L1 Pairing with respect to wild type is 40.6%.
As to “Design 3957 H2: SGN-CD19a heavy chain L143R_S188K”, in [14], the % H2L2 Pairing was determined as 85.4% and the Change in % H2L2 Pairing with respect to wild type was found to be 31.2%. In experiment [15], the % H2L2 Pairing was 99.7% and the Change in % H2L2 Pairing with respect to wild type came out at 20.1%.
Regarding “SGN-CD19a heavy chain H2 K145T_S186E_K228D (design 3951)”, in [16], the % H2L2 Pairing came out at 97.1% and the Change in % H2L2 Pairing with respect to wild type was 25.8%.
Take “SGN-CD19a heavy chain H2 S188K_K228D (design 3954, Systems B and C)”: in [17], the % H2L2 Pairing stood at 61.8% and the Change in % H2L2 Pairing with respect to wild type was determined as 7.6%. In addition, in experiment [18], the % H2L2 Pairing is 98.7% and the Change in % H2L2 Pairing with respect to wild type was found to be 19.1%.
For the substance “SGN-CD19a heavy chain L124R_S186K (H2 of design 3987, systems B and C)”, in [19], the % H2L2 Pairing turned out to be 98.1% and the Change in % H2L2 Pairing with respect to wild type turned out to be 43.9%. In experiment [20], the % H2L2 Pairing is 99.3% and the Change in % H2L2 Pairing with respect to wild type is 19.7%.
Take “SGN-CD19a heavy chain L143E_K145T_K228D (H2 of design 3890, system B)”: in experiment [21], the % H2L2 Pairing worked out at 51.3% and the Change in % H2L2 Pairing with respect to wild type is -2.9%.
In the case of “SGN-CD19a heavy chain L143E_K145T_Q179E_K228D (H2 of design 3967, systems B and C)”, the % H2L2 Pairing amounted to 98.6% in experiment [22] and 100% in [23]. For the same substance, the values for the Change in % H2L2 Pairing with respect to wild type in experiment [22] and in experiment [23] were 44.4% and 28.7%, respectively.
For “SGN-CD19a heavy chain L143E_K145T_S188L (H2 of design 3878, systems B and C)”, the % H2L2 Pairing in experiment [24] turned out to be 28.7%; in experiment [25], 67.4%. Also, the Change in % H2L2 Pairing with respect to wild type is -8.9% in [24] and 7.5% in [25].
In the case of “SGN-CD19a heavy chain L143R (H2 of designs 3971 and 3972, systems B and C)”, the % H2L2 Pairing in experiment [26] was found to be 99.7%; in experiment [27] it was 99.3%; in experiment [28], 99.8%; in experiment [29], 99.8%. Moreover, the Change in % H2L2 Pairing with respect to wild type was found to be 45.5% in experiment [26], 45.1% in experiment [27], 20.2% in [28] and 20.2% in [29].
Consider “SGN-CD19a heavy chain L143R_K228D (H2 of design 3974, systems B and C)”, for which, in experiment [30], the % H2L2 Pairing turned out to be 92.6% and the Change in % H2L2 Pairing with respect to wild type stood at 38.4%. Moreover, in experiment [31], the % H2L2 Pairing was determined as 99.8% and the Change in % H2L2 Pairing with respect to wild type was 20.2%.
For “SGN-CD19a heavy chain L143R_V190F (H2 of design 3980, system B)”, in [32], the % H2L2 Pairing came out at 82.6% and the Change in % H2L2 Pairing with respect to wild type was 28.4%.
In the case of “SGN-CD19a heavy chain S188K_K228D (H2 of design 3997, system B)”, in experiment [33], the % H2L2 Pairing came to 53% and the Change in % H2L2 Pairing with respect to wild type is -1.2%.
